The results in this text go back to patent US20180327493A1.

The target of this experiment is human CD84 on cells (primary CLL cells, Ramos cells, Daudi cells) (human), Q9UIB8. The experiment in a line: cell-based or functional assay.
human CD84 on cells (primary CLL cells, Ramos cells, Daudi cells) (human), Q9UIB8, sequence (Q9UIB8 22-345): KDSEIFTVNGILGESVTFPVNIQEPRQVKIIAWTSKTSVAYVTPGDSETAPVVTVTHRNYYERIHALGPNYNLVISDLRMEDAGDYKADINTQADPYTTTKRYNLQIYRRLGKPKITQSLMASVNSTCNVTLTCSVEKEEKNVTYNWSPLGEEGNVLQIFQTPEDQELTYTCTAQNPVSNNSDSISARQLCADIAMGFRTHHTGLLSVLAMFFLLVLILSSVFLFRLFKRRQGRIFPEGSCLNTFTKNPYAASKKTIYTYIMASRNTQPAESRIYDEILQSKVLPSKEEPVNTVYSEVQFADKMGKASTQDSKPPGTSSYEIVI

B1: anti-CD84 antibody from the B1 hybridoma (antibody)
heavy: EVKLVESGGGLVQPGGSRKLSCAASGFTFSSFGMHWVRQAPEKGLEWVAYISSGSSTIYYADTVKGRFTISRDNPKNTLFLQMTSLRSEDTAMYYCARWGWTGTGLDYWGQGTTLTVSSFEAKTTPPSVYPLAPGSAAQTNSMVTLGCLVKGYFPEPVTVTWNSGSLSSGVHTFPAVLQSDLYTLSSSVTVPSSTWPSETVTCNVAHPASSTKVDKKIVPRDCGCKPCICTVPEVSSVFIFPPKPKDVLTITLTPKVTCVVVDISKDDPEVQFSWFVDDVEVHTAQTQPREEQFNSTFRSVSELPIMHQDWLNGKEFKCRVNSAAFPAPIEKTISKTKGRPKAPQVYTIPPPKEQMAKDKVSLTCMITDFFPEDITVEWQWNGQPAENYKNTQPIMDTDGSYFVYSKLNVQKSNWEAGNTFTCSVLHEGLHNHHTEKSLSHSPGK
light: DIVLTQSPALMAASPGEKVTITCSVSSSISSSNLHWYQQKSETSPKPWIYGTSNLASGVPVRFSGSGSGTSYSLTISSMEAEDAATYYCQQWSSYPFTFGSGTKLEIKRRTRADAAPTVSIFPPSSEQLTSGGASVVCFLNNFYPKDINVKWKIDGSERQNGVLNSWTDQDSKDSTYSMSSTLTLTKDEYERHNSYTCEATHKTSTSPIVKSFNRNEC
B1 registered a % apoptosis, Ramos cells (Magic Red, FACS) of 45 % apoptosis and a % apoptosis, purified CLL cells (Magic Red, FACS) of 73 % apoptosis.

B2: anti-CD84 antibody from the B4 hybridoma (antibody)
heavy: EVKLVESGAELARPGASVKLSCKASGYTFTSYWMQWVKQRPGQGLEWIGAIYPGDGDTRYTQKFKGKATLTADKSSSTAYMQLSSLASEDSAVYYCARLLRTYWYFDVWGAGTTVTVSSFEAKTTAPSVYPLAPVCGDTTGSSVTLGCLVKGYFPEPVTLTWNSGSLSSGVHTFPAVLQSDLYTLSSSVTVTSSTWPSQSITCNVAHPASSTKVDKKIEPRGPTIKPCPPCKCPAPNLLGGPSVFIFPPKIKDVLMISLSPIVTCVVVDVSEDDPDVQISWFVNNVEVHTAQTQTHREDYNSTLRVVSALPIQHQDWMSGKEFKCKVNNKDLPAPIERTISKPKGSVRAPQVYVLPPPEEEMTKKQVTLTCMVTDFMPEDIYVEWTNNGKTELNYKNTEPVLDSDGSYFMYSKLRVEKKNWVERNSYSCSVVHEGLHNHHTTKSFSRTPGK
light: DIVLTQSHKFMSTSVGDRVSITCKASQDVGTAVAWYQQKPGQSPKLLIYWASTRHTGVPDRFTGSGSGTDFTLTISNVQSEDLADYFCQQYSSYPYTFGGGTKLELKRRTRADAAPTVSIFPPSSEQLTSGGASVVCFLNNFYPKDINVKWKIDGSERQNGVLNSWTDQDSKDSTYSMSSTLTLTKDEYERHNSYTCEATHKTSTSPIVKSFNRNEC
As for B2, the % apoptosis, Ramos cells (Magic Red, FACS) was 39 % apoptosis; the % apoptosis, purified CLL cells (Magic Red, FACS) came out at 75 % apoptosis; the annexin positive total population of CLL cells (Annexin 7AAD staining) turned out to be 55.8%.
